Data reported in US20240228562A1, “NOVEL LIPOCALIN MUTEINS SPECIFIC FOR CONNECTIVE TISSUE GROWTH FACTOR (CTGF)” (PIERIS PHARMACEUTICALS GMBH, priority 2021, published 2024).
Changes are numbered by the printed parent chain.

T1: Murine CTGF (Mus musculus, UniProt P29268)
T1 construct: purchased Abbexa
T1 sequence (P29268 26-348): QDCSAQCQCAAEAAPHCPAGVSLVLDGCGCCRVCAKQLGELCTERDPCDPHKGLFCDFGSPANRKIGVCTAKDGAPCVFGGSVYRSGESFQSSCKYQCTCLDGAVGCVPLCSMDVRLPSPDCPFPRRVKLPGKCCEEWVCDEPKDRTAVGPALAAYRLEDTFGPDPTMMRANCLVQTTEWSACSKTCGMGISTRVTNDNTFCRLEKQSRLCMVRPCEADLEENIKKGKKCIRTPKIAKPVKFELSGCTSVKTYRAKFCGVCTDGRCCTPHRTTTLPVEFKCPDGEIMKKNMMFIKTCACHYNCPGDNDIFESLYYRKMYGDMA

T2: human CTGF (Homo sapiens, UniProt P29279, H83D)
T2 construct: purchased R&D Systems
T2 sequence (P29279 27-349 H83D): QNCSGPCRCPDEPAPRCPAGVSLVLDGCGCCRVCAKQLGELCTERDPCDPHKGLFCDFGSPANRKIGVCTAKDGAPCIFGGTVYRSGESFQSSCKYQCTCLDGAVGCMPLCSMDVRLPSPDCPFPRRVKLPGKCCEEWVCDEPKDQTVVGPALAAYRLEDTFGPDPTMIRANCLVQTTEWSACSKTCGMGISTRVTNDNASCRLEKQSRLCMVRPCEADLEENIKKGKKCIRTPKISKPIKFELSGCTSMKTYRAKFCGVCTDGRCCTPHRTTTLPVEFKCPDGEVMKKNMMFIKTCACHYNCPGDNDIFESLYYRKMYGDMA

T3: Rat CTGF (Rattus norvegicus, UniProt Q9R1E9)
T3 construct: purchased R&D Systems
T3 sequence (Q9R1E9 25-347): T1 sequence (P29268 26-348) with H16R, A148V

B1: SEQ ID NO: 25: parent CTGF-binding hNGAL lipocalin mutein (protein)
chain: QDSTSDLIPAPPLSKVPLQQNFQDNQFHGKWYVVGMAGNFRLREDKDPSKMGATIYELKEDKSYNVTQVQFDDKKCLYVIETFVPGSQPGEFTLGAIKSFPGFTSQLVRVVSTNYNQHAMVFFKKVYQNREVFWITLYGRTKELTSELKENFIRFSKSLGLPENHIVFPVPIDQCIDG
modifications: lipocalin mutein
B2: SEQ ID NO: 3: parent CTGF-binding hNGAL lipocalin mutein (protein)
chain: QDSTSDLIPAPPLSKVPLQQNFQDNQFHGKWYVVGRAGNNRLREDKDPPKMWATIYELKEDKSYNVTHVHFMTKKCRYIIDTFVPGSQPGEFTLGAIKSGPGMTSPLVRIVSTNYNQHAMVFFKWVNQNREWFTITLYGRTKELTSELKENFIRFSKSLGLPENHIVFPVPIDQCIDG
modifications: lipocalin mutein
B3: SEQ ID NO: 29: parent CTGF-binding hNGAL lipocalin mutein (protein)
chain: QDSTSDLIPAPPLSKVPLQQNFQDNQFHGKWYVVGWAGNIKLREDKDPFKMSATIYELKEDKSYNVTEVVFEQKKCHYIIKTFVPGSQPGEFTLGDIKSPPGETSSLVRVVSTNYNQHAMVFFKKVFQNREFFWITLYGRTKELTSELKENFIRFSKSLGLPENHIVFPVPIDQCIDG
modifications: lipocalin mutein
B4: SEQ ID NO: 7: parent CTGF-binding hNGAL lipocalin mutein (protein)
chain: QDSTSDLIPAPPLSKVPLQQNFQDNQFHGKWYVVGLAGNYGLRTDKRPSKMFATIYELKEDKSYDVTSVRFEQERCHYTIRTFVPGSQPGEFTTGSIKSRPGQTSSLVRVVSTNYNQHAMVFFKSVIQNREYFAITLYGRTKELTSELKENFIRFSKSLGLPENHIVFPVPIDQCIDG
modifications: lipocalin mutein
B5: SEQ ID NO: 9: parent CTGF-binding hNGAL lipocalin mutein (protein)
chain: QDSTSDLIPAPPLSKVPLQQNFQDNQFHGKWYVVGLAGNKILRIDKQPAKMFATIYELKEDKSYDVTSVRFEARSCSYTIKTFVPGSQPGEFTAGNIKSAPGQTSTLVRVVSTNYNQHAMVFFKHVSQNRETFVITLYGRTKELTSELKENFIRFSKSLGLPENHIVFPVPIDQCIDG
modifications: lipocalin mutein
B6: SEQ ID NO: 23: optimized CTGF-binding hNGAL lipocalin mutein (protein)
chain: B5 chain with H28Q, L36V, K40A, I44P, R74K, S77K, A94S, N96Q, T132I
modifications: lipocalin mutein
B7: SEQ ID NO: 15: optimized CTGF-binding hNGAL lipocalin mutein (protein)
chain: B5 chain with H28Q, K40A, I44E, R74K, S77K, N96Y, S127T, T132I
modifications: lipocalin mutein

Target: T4, Murine CTGF (Mus musculus, UniProt P29268)
T4 construct: Fc (N); purchased Biozol
Assay: ELISA binding to full-length murine CTGF (Example 9)
Details: coated 1 μg/ml, muteins from 1000 nM
Experimental: (§1) Binding of muteins to fragments of human and murine CTGF was tested by an ELISA assay. In detail, a 384-well plate suitable for fluorescence measurements (Greiner FLUOTRAC™ 600, black flat bottom, high-binding) was coated with 20 μl of human (R&D Systems, SEQ ID NO 79) and murine CTGF (Biozol, SEQ ID NO: 80) or fragments thereof (Evitria, huCTGF domains 1 and 2 with human Fc tag (SEQ ID NO 77) and muCTGF domains 1 and 2 with human Fc tag (SEQ ID NO 78)) at a concentration of 1 μg/ml in PBS over night at 4° C. After washing with PBS with 0.05% Tween 20, wells were blocked with 100 μl blocking buffer containing 0.1% Tween 20 and 2% BSA (PBS-T/BSA) for 1 h at room temperature. 20 μl of serially diluted muteins starting at 1000 nM were incubated in PBS-T/BSA for 1 h at room temperature.
(§2) The residual supernatants were discarded and 20 μl HRP-labeled anti-Strep-Tag antibody was added at a predetermined optimal concentration in PBS-T/BSA and incubated for 1 h at RT. After washing, 20 μl fluorogenic HRP substrate (QuantaBlu, Thermo) was added to each well, and the reaction was allowed to proceed for 5 to 25 minutes. The fluorescence intensity of every well on the plate was read using a fluorescence microplate reader (Tecan). Curve fitting was performed using GraphPad Prism 7 software.
T4 sequence (P29268 with tags, fused parts or gaps): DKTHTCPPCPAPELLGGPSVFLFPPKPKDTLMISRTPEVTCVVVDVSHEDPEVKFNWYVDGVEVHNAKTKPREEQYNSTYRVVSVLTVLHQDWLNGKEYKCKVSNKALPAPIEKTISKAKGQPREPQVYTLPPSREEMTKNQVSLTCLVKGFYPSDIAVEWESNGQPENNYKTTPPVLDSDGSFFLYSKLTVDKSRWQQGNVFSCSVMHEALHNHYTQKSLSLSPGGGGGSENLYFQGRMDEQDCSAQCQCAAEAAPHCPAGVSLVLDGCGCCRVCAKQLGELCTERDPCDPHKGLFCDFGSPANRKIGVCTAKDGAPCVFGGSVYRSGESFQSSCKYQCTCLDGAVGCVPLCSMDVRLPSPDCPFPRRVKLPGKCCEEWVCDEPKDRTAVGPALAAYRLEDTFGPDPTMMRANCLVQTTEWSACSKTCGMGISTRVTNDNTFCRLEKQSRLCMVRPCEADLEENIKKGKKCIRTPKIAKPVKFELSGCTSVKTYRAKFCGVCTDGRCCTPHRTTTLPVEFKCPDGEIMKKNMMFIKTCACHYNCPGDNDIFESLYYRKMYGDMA

| EC Murine CTGF | Molecule |
| --- | --- |
| n.b. | B1 |
| n.b. | B2 |
| n.b. | B3 |

Same assay, conditions: coated 1 μg/ml, muteins from 1000 nM, read-out: EC Murine CTGF

| EC50 [nM] | Molecule |
| --- | --- |
| 29 | B4 |
| 11 | B5 |

Target: T1, Murine CTGF
Assay: SPR binding kinetics and affinity, murine CTGF
Design: key to Murine CTGF kon / Murine CTGF koff / Murine CTGF KD: B binding without determination of kinetics constants
Details: 25° C., 1:1 binding model
How it was run: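 Targets either amine-coupled to CM5 chip (300–1100 RU; Fc-tagged human, untagged rat/murine) or Fc-captured via anti-human IgG; muteins injected 180 s contact, 900–3600 s dissociation, 30 μL/min, 25° C. Double-referenced sensorgrams fit to 1:1 model giving kon, koff and KD.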

| Murine CTGF KD | Murine CTGF koff | Murine CTGF kon | Kd [nM] | Molecule |
| --- | --- | --- | --- | --- |
| B | B | B |  | B2 |
| B | B | B |  | B4 |
| B | B | B |  | B6 |
|  | 4.51e-05 s⁻¹ | 129000 M⁻¹ s⁻¹ |  | B7 |
|  | 0.000832 s⁻¹ | 133000 M⁻¹ s⁻¹ | 6.26 | B5 |

Target: T2, human CTGF
Assay: ELISA binding to full-length human CTGF (Example 9)
Details: coated 1 μg/ml, muteins from 1000 nM, read-out: EC Human CTGF
Experimental: as §1, §2

| EC50 [nM] | Molecule |
| --- | --- |
| 11 | B1 |
| 6.9 | B2 |
| 34 | B4 |
| 11 | B3 |
| 14 | B5 |

Target: T3, Rat CTGF
Assay: ELISA binding to rat CTGF (Example 9)
Details: muteins from 1000 nM

| EC Rat CTGF | Molecule |
| --- | --- |
| weak | B2 |

Same assay, conditions: muteins from 1000 nM, read-out: EC Rat CTGF

| EC50 [nM] | Molecule |
| --- | --- |
| 23 | B1 |
| 41 | B4 |
| 20 | B3 |
| 30 | B5 |

Target: T5, muCTGF domains 1 and 2 with human Fc tag (Mus musculus, UniProt P29268)
T5 construct: purchased Evitria
T5 sequence (P29268 with tags, fused parts or gaps): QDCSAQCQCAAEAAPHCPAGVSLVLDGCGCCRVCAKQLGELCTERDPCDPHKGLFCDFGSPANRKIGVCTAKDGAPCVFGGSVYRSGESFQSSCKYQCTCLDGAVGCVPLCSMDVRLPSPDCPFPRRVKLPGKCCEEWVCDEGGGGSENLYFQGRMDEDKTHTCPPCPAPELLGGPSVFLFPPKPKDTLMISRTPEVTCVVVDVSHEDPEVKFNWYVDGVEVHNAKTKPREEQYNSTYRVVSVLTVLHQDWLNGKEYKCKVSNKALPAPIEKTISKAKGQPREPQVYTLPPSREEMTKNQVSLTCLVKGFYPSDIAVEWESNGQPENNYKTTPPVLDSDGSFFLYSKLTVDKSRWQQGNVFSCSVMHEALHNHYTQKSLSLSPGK
Assay: ELISA binding to CTGF fragments, murine CTGF domains 1 and 2
Details: coated 1 μg/ml, muteins from 1000 nM
Experimental: as §1, §2

| EC Murine CTGF1-2-huFc | Molecule |
| --- | --- |
| n.b. | B2 |

Same assay, conditions: coated 1 μg/ml, muteins from 1000 nM, read-out: EC Murine CTGF1-2-huFc

| EC50 [nM] | Molecule |
| --- | --- |
| 14 | B1 |
| 14 | B4 |
| 17 | B3 |
| 5.8 | B5 |

Target: T6, huCTGF domains 1 and 2 with human Fc tag (Homo sapiens, UniProt P29279)
T6 construct: purchased Evitria
T6 sequence (P29279 with tags, fused parts or gaps): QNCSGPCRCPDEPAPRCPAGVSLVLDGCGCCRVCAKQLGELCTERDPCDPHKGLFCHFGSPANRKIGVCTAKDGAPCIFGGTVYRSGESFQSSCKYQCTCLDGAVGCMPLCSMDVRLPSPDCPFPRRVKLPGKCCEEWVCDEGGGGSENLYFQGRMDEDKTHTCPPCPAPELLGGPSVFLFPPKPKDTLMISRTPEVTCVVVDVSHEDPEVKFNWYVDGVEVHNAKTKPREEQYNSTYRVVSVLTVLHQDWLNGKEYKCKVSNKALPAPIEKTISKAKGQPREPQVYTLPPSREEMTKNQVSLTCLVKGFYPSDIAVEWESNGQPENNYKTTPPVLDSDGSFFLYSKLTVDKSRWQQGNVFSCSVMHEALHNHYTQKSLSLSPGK
Assay: ELISA binding to CTGF fragments, human CTGF domains 1 and 2
Details: coated 1 μg/ml, muteins from 1000 nM
Experimental: as §1, §2

| EC Human CTGF1-2-huFc | Molecule |
| --- | --- |
| n.b. | B2 |

Same assay, conditions: coated 1 μg/ml, muteins from 1000 nM, read-out: EC Human CTGF1-2-huFc

| EC50 [nM] | Molecule |
| --- | --- |
| 8.8 | B1 |
| 17 | B4 |
| 8.4 | B3 |
| 8 | B5 |
